assay: soluble on expression in E. coli; label from the status in PepcDB or PDB records

Soluble on expression in E. coli, not soluble:
MSTTDKQVAIVGVGPRGISILERIAAALNTVSRPKQGLTIHLIEDAQMGAGNVWRTDQTRTLCMNTLAGAVTLFTEPGSTVSAPVVEGPLQFDWIRLLRGDEDLSGIPTKAIELFRTYPPAASVAEDFKEELAATVIQSNPSRALYGAYLRWAFDVALQLLPQWVKVEQHHARAIGIREDGDRDVITLDNSEMISADSTVLAVGWQTPAPNAEELSIAAALEENPDLVWVKPGNPVEQDASLIPAGEQVLVRGLGMGFFDIMALTTIDRGGIFHEDPSTRSGLRYEASGEEPHFVISSGRGYPYLPKSDYKSLPPGAKLARLKAVIAAINAQNRGVASINYDAEVWPAVARDAYEAYYETLDRVSPESIRTGLDKIVEIIDEVDVDKLPKALAAHTDDVFDLHAWEFPLAGINESVEALTARIADGMARDIRHAVTAWDSPLKSALWSISAARKPSSILGAEGRLTFESRRNRFAAVMAIGQMVGSGPPLFRTRELLALVDAGLAHFAGARPRLSVSDGQWQISSPTTGDTPLRSKVLVDAWMHNP
MSTTGSAPLNLREWTAPEKLLPNGSPLVPVDARGADWHGIELGELDLRGAKLCRCDLRGTDLSHCQLDGADLRLARYDSQTVVPVGFDLSNSGAVGPGAKLNGVYLNSSDLRGMDLRGSMLLGSYLSGADLSGAILDGVSLAGSDLRSSTMRGAMCRGTRFGTCELDMADLRGANLEGAVLETVESIRGADFSLCTGLGAQIDALLSRSVAELDCWNPLTRSTTRDSLESLRAARSD
MSTTGSAPPNSKLKSVEDTDDDRTLAEDDQNDQNSGSMDHRFERIKVTLMMTQGKKFGLGIVSVHQRILVCKVENESLVAGVLKYGDQIIEINKKNVLNKIDCKKRLMQCLKDKGQVDIIIVRPKTADAVTMIEQEIQLSQQPSTTAQPKIN
MSVDETITFSLAVKNTGNREGQEIVQLYIRDIKSSLPRPVKELKRFKKVNLMPGEEKIVSLSIDKEALSFFDAERHEWICEPGKFEAIIAASAMDIKDVLKFELKLEHHHHHH
MSVIIISRNQEKLDRAAKKIELNTGGKVKVIAADFTKDDIYGHITENIEGLDIGVLVNNVGILPSQIPCKLLETSDLEERIYDIVNCNVKSMVKMCRIVLPGMQQRRRGVILNVSSGIAKIPCPIYTLYAASKVFVERFSQGLQAEYISKGIIIQTVAPFGVSTAMTGHQKPDMVTFTAEEFVRSSLKYLKTGDQTYGSITHTLLGRIVQSIPTWVLQSETFQHHFQEYVKNRDRR
MSVKPVDLNKLRSTHENLYETVVAISKKAREIQEEERAELEERLLPYKEMIRNPASESESEKVFPEQIAISVAFECREKPTQQALAQYLDHQYDYVLEKSPETKVAQNEDEDESDRD
MSVTVEQEAYEMPADNKKVMLKIEEVHLHSCGVFSNVYKGILREPYEKKIAIKKSWPEKGERNFEFIFLTGRERAKHKNVIHMIFAFSHSYDTKVCESYVFDFMPNTLAEVIRQKLTDLDIRLYTWQIFSGLKYLEEHKVVHRDLKPVNILVDHDTAFLKISDFGSAKIIVKGKANNFYQVTRFYRPPELLMKAMEYNSTVDVWSAGCIMAEMVKRHVVFPGRDSAHQLKLYCRCFGAPNEQDISAMKGEKLEKEYWKFTKGFGLQRLVNDISPDQLQFIKRILVYAPEKRLRGKQLLQDDFFRPLFKAGAVRHNGQKISDVITAADYKRAAENEESSACRLAQLVKTDNKDLGIPYCEKSNSYENVYARRSTLIPKEQKMARDNKSKEDSSDDRRVAPSSGEAPSAPGKRSESNKTAAIAKKSTMKSVMNAPPPRQKPE
MSVVSERDVDEYSKQKPETYVLQVSERERKEKYERKNPPIPLDNEYNYQDVTPSPFPFHIDAPSLVFMGRLGEEPISAHFTLTNRTCKPFWFKIKVSSRELFKVRPTNGKLENSERVVIRVIFYPNVRVPKPFCEYLHVYALFAGLGDRTAYEAFNRLDRQRTLPPKRLFTEFVWHPNIGMTQAYENGKLMEMMRAKQKLLDYRKDENDKIKTFQVDFNNVIFDHRNRVLDRMLKANVVEKEKLLYMPTPNLNLYMQNLRNQKNRSKLAVLLERRGDAFKGVQNLYAEEVLAKRTGDKMFEKYKKKKGTKGYQSLDAKLYRPVKVVRNTKNKKKKGKK
MSWINRIFSKSPSSSTRKANVPEGVWTKCTACEQVLYSEELKRNLYVCPKCGHHMRIDARERLLNLLDEDSSQEIAADLEPKDILKFKDLKKYKDRINAAQKETGEKDALITMTGTLYNMPIVVAASNFAFMGGSMGSVVGAKFVKAAEKAMEMNCPFVCFSASGGARMQEALFSLMQMAKTSAVLAQMREKGVPFISVLTDPTLGGVSASFAMLGDLNIAEPKALIGFAGPRVIEQTVREKLPEGFQRSEFLLEKGAIDMIVKRSEMRQTLASVLSKLTNQPSPFVEPELISEDE
MSYLDFNSMLNNLYTKFGDSSFENVFYLPEPKISKKSTRIDWININVFLKSVNRSIEHFINYLKNDRKISTTYQNNILIIQGKYRKEDINKMMLEYVNKFCKCPICSSYDTLLVKDGTIRKEKIICSKCKSTTFCS
MSYPLFDKDEHWHKPEQAFLTDDHRTILRFAVEALMSGKGAVLVTLVEIRGGAARPLGAQMVVREDGRYCGFVSGGCVEAAAAFEALEMMGSGRDREIRYGEGSPWFDIVLPCGGGITLTLHKLRSAQPLLAVLNRLEQRKPVGLRYDPQAQSLVCLPTQTRTGWNLNGFEVGFRPCVRLMIYGRSLEAQATASLAAATGYDSHIFDLFPASASAQIDTDTAVILLCHDLNRELPVLQAAREAKPFYLGALGSYRTHTLRLQKLHELGWSREETTQIRAPVGIFPKARDAHTLALSVLAEVASVRLHQEEDSCLPPSS
MSYQIQYNDFPTFLRKHFPYKVQKISLNAGFTCPNRDGTKGWGGCTYCNNQTFNPDYCRTEKSIATQLEEGKCFFAHKYPEMKYLAYFQAYTNTYAELEGLKRKYEEALQVDGVVGLVIGTRPDCMPEELLQYLEELNRHTFLMVEYGIESASDETLRRINRGHTYADTVEAVQRTAACGILTGGHVILGLPGETHDTMVEQAGILSALPLSTLKIHQLQLIRGTRMAHEYEENPE
MTADRTGHCLCGGVQIAVATVSHEIGACHCEMCRRWTGSAFVTMMVPEAAMTVTGAEHVKAYASSAWAERCFCGSCGSTLWYRLTGPGMPRDYYMAAGLLDDLSGIRLAHEIYIDRKPDAWSFAGPTHQMTEAEFLATLPASPEE

Soluble on expression in E. coli, soluble:
MSTVIKGGTIVTADLTYKADVKVEGGRIVEIGPNLSGAETLDATGCYVMPGGIDPHTHLEMPFMGTYSSDDFESGTRAALAGGTTMVVDFALPSPGQSLLEALTMWDNKSTRANCDYSFHMAITWWGEQVFNEMETIVKDKGINTFKHFMAYKGALMVDDDEMFSSFQRCAALGALPLVHAENGDVVAQLQAKLLAEGNSGPEAHAYSRPAEVEGEAANRAIMIADMAGCPVYIVHTSCEQAHEAIRRARAKGMRVFGEPLIQHLTLDETEYFDKDWDHAARRVMSPPFRNKLHQDSLWAGLASGSLQVVATDHCAFTTEQKRFGVGDFTRIPNGTGGLEDRMPMLWTYGVATGRITMNEFVAVTSTNIAKILNIYPKKGAILVGADADLVVWDPKRSKTISAKTQQSAIDYNVFEGKTVTGLPRFTLTRGVVSIEEGTVKTQEGHGEFVRRDPFPAVSTALSTWKEVTAPRAVQRSGIPASGVHHHHHH
MSVDYPRDLIGYGSNPPHPHWPGKARIALSFVLNYEEGGERNILHGDKESEAFLSEMVSAQPLQGERNMSMESLYEYGSRAGVWRILKLFKAFDIPLTIFAVAMAAQRHPDVIRAMVAAGHEICSHGYRWIDYQYMDEAQEREHMLEAIRILTELTGERPLGWYTGRTGPNTRRLVMEEGGFLYDCDTYDDDLPYWEPNNPTGKPHLVIPYTLDTNDMRFTQVQGFNKGDDFFEYLKDAFDVLYAEGAEAPKMLSIGLHCRLIGRPARLAALQRFIEYAKSHEQVWFTRRVDIARHWHATHPYTGAAK
MSVEKIPGYTYGETENRAPFNLEDLKLLKEAVMFTAEDEEYIQKAGEVLEDQVEEILDTWYGFVGSHPHLLYYFTSPDGTPNEKYLAAVRKRFSRWILDTSNRSYDQAWLDYQYEIGLRHHRTKKNQTDNVESVPNIGYRYLVAFIYPITATMKPFLARKGHTPEEVEKMYQAWFKATTLQVALWSYPYVKYGDF
MSVLYIQIRRNQITVRDLESKREVSGDAAFSNQRLLIANFFVAEKVLQDLVLQLHPRSTWHSFLPAKRMDIVVSALEMNEGGLSQVEERILHEVVAGATLMKYRQFHIHAQSAVLSDSAVMAMLKQK
MSVSLVVIRLELAEHSPVPAGFGFSAAAGEMSDEEIKKTTLASAVACLEGKSPGEKVAIIHQHLGRREMTDVIIETMKSNPDELKTTVEERKSSEASPTAQRSKDHSKECINAAPDSPSKQLPDQISFFSGNPSVEIVHGIMHLYKTNKMTSLKEDVRRSAMLCILTVPAAMTSHDLMKFVAPFNEVIEQMKIIRDSTPNQYMVLIKFRAQADADSFYMTCNGRQFNSIEDDVCQLVYVERAEVLKSEDGASLPVMDLTELPKCTVCLERMDESVNGILTTLCNHSFHSQCLQRWDDTTCPVCRYCQTPEPVEENKCFECGVQENLWICLICGHIGCGRYVSRHAYKHFEETQHTYAMQLTNHRVWDYAGDNYVHRLVASKTDGKIVQYECEGDTCQEEKIDALQLEYSYLLTSQLESQRIYWENKIVRIEKDTAEEINNMKTKFKETIEKCDNLEHKLNDLLKEKQSVERKCTQLNTKVAKLTNELKEEQEMNKCLRANQVLLQNKLKEEERVLKETCDQKDLQITEIQEQLRDVMFYLETQQKINHLPAETRQEIQEGQINIAMASASSPASSGGSGKLPSRKGRSKRGK
MSWQEKINAALDARRAADALRRRYPVAQGAGRWLVADDRQYLNFSSNDYLGLSHHPQIIRAWQQGAEQFGIGSGGSGHVSGYSVVHQALEEELAEWLGYSRALLFISGFAANQAVIAAMMAKEDRIAADRLSHASLLEAASLSPSQLRRFAHNDVTHLARLLASPCPGQQMVVTEGVFSMDGDSAPLAEIQQVTQQHNGWLMVDDAHGTGVIGEQGRGSCWLQKVKPELLVVTFGKGFGVSGAAVLCSSTVADYLLQFARHLIYSTSMPPAQAQALRASLAVIRSDEGDARREKLAALITRFRAGVQDLPFTLADSCSAIQPLIVGDNSRALQLAEKLRQQGCWVTAIRPPTVPAGTARLRLTLTAAHEMQDIDRLLEVLHGNG
MSYSIVRVSKVKSGTNTTGIQKHVQRENNNYENEDIDHSKTYLNYDLVNANKQNFNNLIDEKIEQNYTGKRKIRTDAIKHIDGLITSDNDFFDNQTPEDTKQFFEYAKEFLEQEYGKDNLLYATVHMDEKTPHMHYGVVPITDDGRLSAKEVVGNKKALTAFQDRFNEHVKQRGYDLERGQSRQVTNAKHEQISQYKQKTEYHKQEYERESQKTDHIKQKNDKLMQEYQKSLNTLKKPINVPYEQETEKVGGLFSKEIQETGNVVISQKDFNEFQKQIKAAQDISEDYEYIKSGRALDDKDKEIREKDDLLNKAVERIENADDNFNQLYENAKPLKENIEIALKLLKILLKELERVLGRNTFAERVNKLTEDEPKLNGLAGNLDKKMNPELYSEQEQQQEQQKNQKRDRGMHLLEHHHHHH

— the DeepSol protein solubility set
